Target: T1, Flag-tagged Bach2 protein (mouse, UniProt P97303 1-839)
T1 construct: Bach2, mouse (murine Bach2 cDNA is named in the methods of the luciferase assay); The species is stated only for the cDNA cloned into pCMV-Myc; also called WT Bach2 protein; BTB and CNC homology 1, basic leucine zipper transcription factor 2; source: cell-free protein synthesis
Assay: AlphaScreen or HTRF; Flag-tagged Bach2 mixed with biotinylated transcription factors, 26 °C for 1 h; then protein A-conjugated acceptor beads, streptavidin-coated donor beads and anti-Flag M2 antibody, 26 °C for 1 h; proteins from cell-free synthesis; intensities relative to DHFR
Conditions: partners not purified

T1 sequence (P97303 whole entry): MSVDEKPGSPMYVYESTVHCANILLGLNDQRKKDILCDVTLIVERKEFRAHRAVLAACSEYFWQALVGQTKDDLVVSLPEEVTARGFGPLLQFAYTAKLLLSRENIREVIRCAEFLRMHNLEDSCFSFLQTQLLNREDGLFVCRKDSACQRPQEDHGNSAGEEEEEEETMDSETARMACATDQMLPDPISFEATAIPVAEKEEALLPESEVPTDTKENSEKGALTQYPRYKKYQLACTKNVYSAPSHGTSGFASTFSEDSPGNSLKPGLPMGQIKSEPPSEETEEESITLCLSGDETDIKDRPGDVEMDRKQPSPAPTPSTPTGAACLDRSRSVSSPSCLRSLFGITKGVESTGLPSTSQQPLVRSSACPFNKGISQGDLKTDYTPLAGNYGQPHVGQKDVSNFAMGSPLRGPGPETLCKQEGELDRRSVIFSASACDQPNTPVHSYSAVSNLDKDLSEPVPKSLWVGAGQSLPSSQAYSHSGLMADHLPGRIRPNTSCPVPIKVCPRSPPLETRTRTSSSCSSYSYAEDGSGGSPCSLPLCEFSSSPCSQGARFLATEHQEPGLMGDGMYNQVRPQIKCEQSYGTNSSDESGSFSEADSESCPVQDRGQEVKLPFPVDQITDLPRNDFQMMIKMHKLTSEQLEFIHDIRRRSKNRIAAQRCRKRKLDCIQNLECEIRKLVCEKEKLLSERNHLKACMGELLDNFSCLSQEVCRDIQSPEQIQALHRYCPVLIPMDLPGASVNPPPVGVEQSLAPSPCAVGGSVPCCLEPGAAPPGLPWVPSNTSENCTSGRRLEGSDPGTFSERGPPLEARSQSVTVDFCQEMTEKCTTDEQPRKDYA

- fold binding strength against the Batf–Bach2 interaction: ~20 fold
B1: MafK (natural protein)
chain: not shown
notes: MafK (small Maf protein); Named only in the discussion as measured in the authors' AlphaScreen system

Reference: PMC5025763, “Bach2–Batf interactions control Th2-type immune response by regulating the IL-4 amplification loop” (Nature Communications, 2016)
